Experimental data published in the supplement of paper PMC10724198.
± gives the standard deviation of the averaged measurements.

Each sequence was assayed on Saccharomyces cerevisiae (assay: protein stability index of tFT-peptide fusion (C-terminal peptide) (PSI (0-1 scale)); higher = more stable (slower turnover)). Settings: genetic background: wild type; temperature: 30 C.
Experimental: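 Multiplexed protein stability (MPS) profiling in S. cerevisiae. Random 12-aa peptides (tFT-X12 library) are fused to the C-terminus of a sfGFP-mCherry tandem fluorescent timer, after mCherry and a GGGS linker. Cells are FACS-sorted into 8 mCherry/sfGFP bins and deep-sequenced. The protein stability index (PSI) is the read-weighted bin average, scaled from 0 (unstable) to 1 (stable). Only peptides with >10 reads are reported; cells were grown at 30 °C in SC-His with glucose.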
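Also: PSI is a weighted mean of sequencing reads over stability bins, variants kept only with over 10 reads, mCherry proximal and sfGFP distal, peptide attached via GGGS linker.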

| Sequence | protein stability index |
| --- | --- |
| AACNGGPMNQTR | 0.7 ± 0.086 |
| AAPKSGARASLW | 0.728 ± 0.084 |
| AAQDTRAHYRTR | 0.704 ± 0.044 |
| AAREVSPGNVCH | 0.731 ± 0.065 |
| AARSEVASAAGR | 0.643 ± 0.016 |
| AASPHHPSQTAL | 0.6831 ± 0.0063 |
| AASSDGWHTGGA | 0.694 ± 0.0032 |
| AAVLFVHATSHE | 0.685 ± 0.061 |
| AAWLSQLNKVNV | 0.6679 ± 0.0014 |
| ACCPPRLAPPPL | 0.675 ± 0.016 |
| ACGALAKMILFW | 0.663 ± 0.059 |
| ACPAPPPPQLPR | 0.593 ± 0.031 |
| ACRLWWRRGGEG | 0.61 ± 0.045 |
| ACRPRPPLSRSP | 0.739 ± 0.032 |
| ACSTALPFSFAS | 0.689 ± 0.0074 |
| ACVSWLPVPRQS | 0.6964 ± 0.0062 |
| ADGLVGLLLSVV | 0.62 ± 0.024 |
| ADMLETFSVHLG | 0.666 ± 0.011 |
| ADVWSCAFCFDC | 0.595 ± 0.033 |
| AEGGGWSFELEG | 0.746 ± 0.02 |
| AFCVSVLVGLGG | 0.487 ± 0.052 |
| AFFVAFLPLLSR | 0.552 ± 0.031 |
| AFLPLYFLEGVL | 0.702 ± 0.024 |
| AFLTSYHPPPLP | 0.69 ± 0.059 |
| AFNRYASRIQEV | 0.695 ± 0.02 |
| AFPLFTDLTRVP | 0.7692 ± 0.0066 |

| Sequence | protein stability index |
| --- | --- |
| AFPPVIPALFSV | 0.697 ± 0.027 |
| AFRGRGAFKYCL | 0.683 ± 0.1 |
| AFSLRGRSVMFY | 0.688 ± 0.025 |
| AFTLQSRLSSPS | 0.655 ± 0.012 |
| AFVEGMAYLLII | 0.524 ± 0.017 |
| AGAGLGVVLGWW | 0.684 ± 0.017 |
| AGCVLDGRGVVA | 0.615 ± 0.074 |
| AGGGGGRGSAGA | 0.711 ± 0.011 |
| AGGGGGVTASGA | 0.71 ± 0.063 |
| AGGGGRLTRSRA | 0.691 ± 0.087 |
| AGGGHCVGMGVG | 0.642 ± 0.037 |
| AGGPRVRGAAGR | 0.698 ± 0.055 |
| AGKYCCFMVFVV | 0.649 ± 0.033 |
| AGLESFFHYSYF | 0.7487 ± 0.0002 |
| AGLIRDAVILIG | 0.631 ± 0.021 |
| AGLTGSREGWRG | 0.638 ± 0.041 |
| AGPGSSSTNHES | 0.585 ± 0.015 |
| AGPPRGVCARWC | 0.635 ± 0.011 |
| AGRGRGPRSAGS | 0.657 ± 0.014 |
| AGRRVPVMMYGS | 0.691 ± 0.022 |
| AGRVGGFFFVVA | 0.608 ± 0.017 |
| AGSCRCRTCCLV | 0.61354 ± 0.00038 |
| AGSLCSVVFFSG | 0.688 ± 0.23 |
| AGSQEDGRSIKG | 0.669 ± 0.024 |
| AGSRGIVREIVL | 0.68 ± 0.052 |
| AGVASTETREGG | 0.685 ± 0.0073 |

| Sequence | protein stability index |
| --- | --- |
| AGVGLAETAGDD | 0.677 ± 0.016 |
| AGVGMGAVAGGS | 0.705 ± 0.02 |
| AGWGRRRLDGGR | 0.684 ± 0.02 |
| AHFSRRSSSSVS | 0.7 ± 0.02 |
| AHLLLRPPLVAH | 0.486 ± 0.029 |
| AHPLSPLSSPLR | 0.682 ± 0.081 |
| AHVDWRLPEPNR | 0.7172 ± 0.0069 |
| AIGAVEGGRMRE | 0.5748 ± 0.0048 |
| AIQNSNLNTKVR | 0.675 ± 0.033 |
| AIVWGVGCGSVG | 0.738 ± 0.12 |
| AKLNQLMSKSQI | 0.678 ± 0.02 |
| AKRRELKCRVNL | 0.674 ± 0.0087 |
| AKSRQRKNGRTG | 0.708 ± 0.026 |
| AKYPAQASTEPL | 0.702 ± 0.028 |
| ALALCLVFFFSI | 0.574 ± 0.065 |
| ALAYSLQRSPRV | 0.616 ± 0.045 |
| ALESHFMVPSFP | 0.693 ± 0.043 |
| ALGHAKDSVYGM | 0.679 ± 0.041 |
| ALGRWAVSCNRG | 0.71 ± 0.11 |
| ALLFCVCCGFFF | 0.541 ± 0.013 |
| ALPGHFCVSFLP | 0.752 ± 0.033 |
| ALPPPRPPPPSP | 0.692 ± 0.034 |
| ALRAGGRPYSVS | 0.716 ± 0.014 |
| ALRGESWKSKQG | 0.664 ± 0.13 |
| ALSRLLPPRPPV | 0.608 ± 0.027 |
| ALTWVGEGLRGS | 0.699 ± 0.027 |

| Sequence | protein stability index |
| --- | --- |
| ALYQNWITITRN | 0.657 ± 0.022 |
| AMGIPLLTTHFI | 0.674 ± 0.064 |
| AMPLPPPTPPRS | 0.627 ± 0.027 |
| ANHRPCIPPPPR | 0.657 ± 0.073 |
| APACVAGGGQRL | 0.681 ± 0.081 |
| APAFLSLVSFAS | 0.673 ± 0.017 |
| APAPAPARTPTR | 0.683 ± 0.016 |
| APAPSLPTSGEL | 0.701 ± 0.092 |
| APDRGWAEGQCS | 0.727 ± 0.018 |
| APGGACINIQLM | 0.663 ± 0.044 |
| APHPTPYVRRHC | 0.74 ± 0.041 |
| APLRAPYPPPPY | 0.7153 ± 0.0014 |
| APLRSSCVFLFP | 0.744 ± 0.17 |
| APLSRPLRLPHP | 0.692 ± 0.022 |
| APPCILCLFPAC | 0.716 ± 0.024 |
| APPLPPSPPSAR | 0.729 ± 0.11 |
| APPLPSAPPPPR | 0.668 ± 0.031 |
| APPPGSTFVSCE | 0.674 ± 0.045 |
| APPPLPLPPPAP | 0.705 ± 0.033 |
| APPPLPSPRPAA | 0.699 ± 0.04 |
| APPPPPPPPSFP | 0.687 ± 0.055 |
| APPPRPLKLFPP | 0.611 ± 0.028 |
| APPPRSPPPTPH | 0.696 ± 0.012 |
| APPRPHTPLPRP | 0.75 ± 0.07 |
| APPRSPRSLPPL | 0.658 ± 0.013 |
| APPVILPPSGPP | 0.654 ± 0.028 |

| Sequence | protein stability index |
| --- | --- |
| APPVPLWVNPRT | 0.7 ± 0.025 |
| APQTELTGVLFG | 0.685 ± 0.0071 |
| APSCPKSLTFLD | 0.734 ± 0.035 |
| APSLLAPPPLRP | 0.674 ± 0.017 |
| APSLPPRLPWLY | 0.737 ± 0.015 |
| APSPPSHPAAIP | 0.741 ± 0.042 |
| APSPPVPTGPRP | 0.664 ± 0.059 |
| APSTPTPPPPPP | 0.686 ± 0.042 |
| APVQLDNKVVLM | 0.699 ± 0.04 |
| APWSVSAGCFLF | 0.687 ± 0.036 |
| AQTVNNALAKPI | 0.6551 ± 0.0049 |
| ARAEDLLVFLPL | 0.691 ± 0.039 |
| AREGARVVPVGR | 0.717 ± 0.014 |
| AREGGGRAGRRE | 0.729 ± 0.021 |
| ARGRAVRAAGAS | 0.688 ± 0.088 |
| ARIECLIFPGCK | 0.626 ± 0.022 |
| ARKCPLLYGPMA | 0.662 ± 0.04 |
| ARKDVTRKSSND | 0.665 ± 0.064 |
| ARLGKASYSVFS | 0.729 ± 0.027 |
| ARNVDNIGYENS | 0.698 ± 0.013 |
| ARRAPTFFSLWR | 0.658 ± 0.049 |
| ARRAVPGRGCEV | 0.683 ± 0.066 |
| ARRGIVQSRCNW | 0.684 ± 0.064 |
| ARRRINKKIKKV | 0.554 ± 0.018 |
| ARVAGECRCGRT | 0.6554 ± 0.00095 |
| ASAGTVYLTLLP | 0.697 ± 0.072 |

| Sequence | protein stability index |
| --- | --- |
| ASFMSPPSAPLA | 0.6953 ± 0.0047 |
| ASGGGPLGNSSR | 0.684 ± 0.043 |
| ASGPLPPHPIAD | 0.677 ± 0.011 |
| ASKKSVVFKQKT | 0.6586 ± 0.0013 |
| ASLGPCLPLSLN | 0.695 ± 0.03 |
| ASPAASSPYGTR | 0.733 ± 0.051 |
| ASPAIDSETSEY | 0.686 ± 0.16 |
| ASPFCRPNRHLL | 0.648 ± 0.031 |
| ASPLYPRPPVRG | 0.651 ± 0.014 |
| ASPSSAAQPLSP | 0.641 ± 0.099 |
| ASSPLFLPAIQP | 0.63 ± 0.06 |
| ASTPLPTSPPPP | 0.66 ± 0.036 |
| ASVIWGGFSDSR | 0.719 ± 0.015 |
| ASVTSKSNCSGI | 0.663 ± 0.037 |
| ASYFPLRLLGFL | 0.65 ± 0.051 |
| ATDWPELFLPFG | 0.666 ± 0.007 |
| ATILILHTSPQF | 0.655 ± 0.041 |
| AVAIGQGLSAGV | 0.686 ± 0.053 |
| AVCGPHLYPRVI | 0.643 ± 0.022 |
| AVCSLLVYAPDR | 0.652 ± 0.059 |
| AVGLCGARSLGG | 0.634 ± 0.048 |
| AVGPAGSQATIC | 0.706 ± 0.1 |
| AVGPLTGPRPPV | 0.699 ± 0.073 |
| AVGSAGRGRLGI | 0.673 ± 0.0078 |
| AVGVRSSGRVSI | 0.7246 ± 0.0034 |
